72 sequences from the supplement of paper PMC10567573 can be followed below.

± gives the standard deviation.

The data set in a line: protein stability index of a GFP-peptide fusion (GPS, HEK-293T) (PSI 1-6); higher = more stable.
The mark [1] stands for this setting: treatment: DMSO, c terminus: a fixed tail appended.
Setting [2] is: treatment: MLN4924 1 uM, 8 h, c terminus: a fixed tail appended.
Where [3] appears, read: treatment: DMSO, c terminus: native.
Where [4] appears, read: treatment: MLN4924 1 uM, 8 h, c terminus: native.
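Further: 24-mer peptide tiles fused after GFP, lentivirally expressed, FACS-sorted into six equal bins by GFP/DsRed ratio, decoded by Illumina sequencing, PSI is the read-weighted mean bin number.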

Consider TASDGGDPLRSGTVLVSVTVFDAN [PCDHGA10], for which the protein stability index amounted to 2.31 ± 0.52 under setting [1] and 2.13 ± 0.091 under setting [2].
With TASSLVKINLQGDIVDRGSTNLGV [ADD1], the protein stability index came to 3.36 ± 0.68 under setting [1] and 3.36 ± 0.25 under setting [2].
In the case of TDHQTPPTSPVQGTTPQISPSTLI [HDAC6], the protein stability index by setting is: under setting [1], 4.93 ± 0.16; under setting [2], 4.86 ± 0.27.
The corresponding values for TDILDLENQRENLEQPFLSVFKKG [PLEKHN1] are 4.52 ± 0.07 and 4.24 ± 0.21.
The corresponding values for TDILPQMITLSEAYIQIWKRRDND [USP39] are 2.82 ± 0.25 and 2.79 ± 0.14.
On the same counts, the results for TDQAIFYAVTPLPWCPHLVAVCPI [HDAC6] are 3.09 ± 0.61 and 3.22 ± 0.41.
Consider TDRDEGANGEVTYSFRKLPDTQLL [PCDHGA10], for which the protein stability index turned out to be 4.44 ± 0.13 under setting [1] and 4.41 ± 0.22 under setting [2].
On the same counts, the results for TEDFWRMLWEHNSTIVVMLTKLRE [PTPRD] are 2.21 ± 0.25 and 2.23 ± 0.27.
On the same counts, the results for TEEDDGFVDILESDLKDDDAVPPG [CDC25B] are 5.46 ± 0.27 and 5.4 ± 0.12.
On the same counts, the results for TEELTVIKSSLKDEYQYSFWDLFR [SLC2A12] are 2.38 ± 0.25 and 2.29 ± 0.35.
Regarding TELRRSGSSRSPGSKARAEGRGPV [PLEKHN1], the protein stability index reads like this: under setting [1], 4.84 ± 0.31; under setting [2], 4.96 ± 0.52.
On the same counts, the results for TEQAVALLRDRTGQQSDTAQLELY [SCARA5] are 4.61 ± 0.16 and 4.42 ± 0.25.
As to TETPLEGDFAWERVRGLGLPKLYL [CDKN1A], the protein stability index reads like this: under setting [1], 2.18 ± 0.15; under setting [2], 2.57 ± 0.34.
On the same counts, the results for TFGAAACSIGFAVRYLNAYTGIVL [POP5] are 3.18 ± 0.57 and 3.45 ± 0.15.
The corresponding values for TFNRWGTLLAVGCNDGRIVIWDFL [RBBP5] are 2.35 ± 0.41 and 2.18 ± 0.27.
TFPASVLAPVPTHSTVSELSRSPV [DUSP5]: the protein stability index worked out at 3.92 ± 0.082 under setting [1] and 4.14 ± 0.39 under setting [2].
The corresponding values for TGESSEPEAKVLHTKRLYRAVVEA [SMG5] are 3.65 ± 0.33 and 3.63 ± 0.24.
The corresponding values for TGGSADLFGGFADFGSAAASGSFP [CLINT1] are 3.69 ± 0.35 and 3.62 ± 0.24.
On to TGLMVSLLCLLHFSIVSVAAHLAL [RTN2], for which the protein stability index under setting [1] amounted to 3.27 ± 0.11 and the protein stability index under setting [2] is 2.87 ± 0.27.
On the same counts, the results for TGMPMMPQQPVMFAQPMMRPPFGA [SNAP91] are 2.97 ± 0.064 and 2.67 ± 0.33.
In the case of TIGVEFATRSIQVDGKTIKAQIWD [RAB11A], the protein stability index under setting [1] stood at 3.04 ± 0.2 and the protein stability index under setting [2] was 3.08 ± 0.32.
On the same counts, the results for TIIFTAAREGRETLKCLSHHVADA [TOR1AIP2] are 2.42 ± 0.13 and 2.62 ± 0.2.
On the same counts, the results for TIQQEKLLAEKEEKLQKEQKELQD [SASS6] are 5.52 ± 0.31 and 5.54 ± 0.23.
On the same counts, the results for TKKRKLGKNPDVDTSFLPDRDREE [FAM50A] are 5.18 ± 0.14 and 5.23 ± 0.41.
Regarding TKQRIQDQKVPYIFRDNQWVGFDD [CHIT1], the protein stability index by setting is: under setting [1], 3.49 ± 0.47; under setting [2], 3.69 ± 0.4.
In the case of TLHNAQTQEPIFTFTASFSGKVFP [TRIM15], the protein stability index reads like this: under setting [1], 2.49 ± 0.23; under setting [2], 2.56 ± 0.3.
On the same counts, the results for TLRQKAEADKNDKAVKDLVVLLFE [HSP90AB1] are 3.07 ± 0.39 and 3.12 ± 0.27.
The corresponding values for TLSFIVDGQYMGVAFRGLKGKKLY [SPSB1] are 2.27 ± 0.46 and 2.36 ± 0.36.
The corresponding values for TLTELRRTVQSLEIDLDSMRNLKA [KRT18] are 3 ± 0.5 and 3.06 ± 0.51.
TLVGNVAQDLGLKMTDLLSRRLQL [PCDHGC5]: the protein stability index is, setting by setting: under setting [1], 2.58 ± 0.66; under setting [2], 2.6 ± 0.57.
The corresponding values for TLYANNVQRVMAQALGIPATECEF [LPCAT4] are 2.49 ± 0.22 and 2.58 ± 0.19.
For the sequence TMLSHYRPFYVNKGNGIGSNEAP [TRIM29], the protein stability index runs as follows: under setting [3], 3.1 ± 0.24; under setting [4], 3.14 ± 0.25.
Take TMQSMFAKNFHVKAVMKTSVLLSW [PTPRD]: the protein stability index under setting [1] worked out at 2.48 ± 0.73 and the protein stability index under setting [2] came to 2.94 ± 0.42.
On the same counts, the results for TPPASPPPSVLISKNEVGIFTTPN [KMT2E] are 4.03 ± 0.18 and 4.06 ± 0.1.
TPPPGPASAQPLPAPEAAHTTGPT [TFE3]: the protein stability index came to 5.38 ± 0.27 under setting [1] and 5.38 ± 0.084 under setting [2].
The corresponding values for TPVVTESTATSITLTWDSGNPEPV [PTPRD] are 4.21 ± 0.057 and 4.16 ± 0.33.
The corresponding values for TQDGKEQPELPCAMAMGTPSTTER [PXN] are 5.21 ± 0.27 and 5.18 ± 0.3.
In the case of TQIPADEDTQTDADSSAQAAAQAP [TAF7L], the protein stability index runs as follows: under setting [1], 5.49 ± 0.072; under setting [2], 5.51 ± 0.15.
For TQPGIRRARDKALSGGKRKETLV [NET1], the protein stability index is 4.29 ± 0.3 under setting [3] and 4.15 ± 0.38 under setting [4].
On to TRRHPGGSRVISHYAGQDATDPFV [FADS1], for which the protein stability index is, setting by setting: under setting [1], 3.7 ± 0.33; under setting [2], 3.86 ± 0.089.
On the same counts, the results for TTTTFPMSNHTRERVTVAKLTLEN [STK38L] are 3.52 ± 0.26 and 3.5 ± 0.18.
The corresponding values for TTYDRRSSQERKFMEERELLGQDE [RSPH3] are 5.34 ± 0.2 and 5.39 ± 0.23.
The corresponding values for TWEQTFQELIQEAKPRATWTLKLD [RTP4] are 2.02 ± 0.24 and 2.25 ± 0.33.
In the case of TWKQELLKLMDRHKKDCAREKPFK [ZNF75A], the protein stability index is 2.69 ± 0.25 under setting [1] and 2.88 ± 0.3 under setting [2].
On the same counts, the results for TYLVSERLEREERNQTQVLRQQQD [FAF2] are 4.97 ± 0.21 and 4.89 ± 0.072.
On the same counts, the results for TYNTKVYKMFASRRKQRYWPFSMD [LOXL2] are 2.32 ± 0.51 and 1.89 ± 0.15.
The corresponding values for VAACAQTVVSLAAAGQPTPPTSPE [CEBPD] are 5 ± 0.78 and 5.29 ± 0.33.
VAAGRTQKAGVTRSGRLILWEAPP [NEK8]: the protein stability index is, setting by setting: under setting [1], 2.85 ± 0.24; under setting [2], 2.94 ± 0.24.
Consider VAEAFRALASAQCPQFGIPRKRLK [SPOPL], for which the protein stability index was found to be 2.73 ± 0.42 under setting [1] and 3 ± 0.34 under setting [2].
The corresponding values for VAGDCLDEKQCKQCANKVLQHMKA [LRRC59] are 3.74 ± 0.14 and 3.9 ± 0.43.
Regarding VAGGVAVAAIALILGVAFLVRKK [CEND1], the protein stability index was determined as 4.02 ± 0.29 under setting [3] and 4.16 ± 0.097 under setting [4].
Regarding VAKKTPTKRSTLIISGVSKVPIAQ [C2CD2L], the protein stability index is, setting by setting: under setting [1], 3.02 ± 0.33; under setting [2], 3.24 ± 0.33.
The corresponding values for VCQALAQVDGGANFSVDRWERKEG [CPOX] are 4.41 ± 0.14 and 4.1 ± 0.43.
The corresponding values for VDEYFRQPVVDTFDIRILMAKSVK [CARM1] are 2.47 ± 0.46 and 2.64 ± 0.63.
Regarding VDITPYLDQLDESLRDKVLQLQKG [INTS3], the protein stability index reads like this: under setting [1], 3.79 ± 0.071; under setting [2], 4.06 ± 0.1.
The corresponding values for VDREKGLSAEPGWQAKREEEEEEE [CHGA] are 5.36 ± 0.48 and 5.7 ± 0.18.
The corresponding values for VDRNTRPGPQDPEESASRQRFGEA [ELOA2] are 4.92 ± 0.25 and 5.14 ± 0.14.
With VEADINGLRRVLDELTLARTDLEM [KRT15], the protein stability index under setting [1] was 3.29 ± 0.27 and the protein stability index under setting [2] was 3.33 ± 0.39.
The corresponding values for VEATVKPELTAALRDIRAQYESIA [PRPH] are 3.48 ± 0.16 and 3.4 ± 0.22.
For VESVFFGGGTPSLASPHTVAAVLE [RSAD1], the protein stability index came to 2.97 ± 0.18 under setting [1] and 3.02 ± 0.47 under setting [2].
On the same counts, the results for VFKCVKRLDGCIYAIKRSKKPLAG [WEE1] are 2.23 ± 0.27 and 2.28 ± 0.15.
On the same counts, the results for VGGFDGTTYLKTIEVFDPDANTWR [KLHL20] are 2.91 ± 0.12 and 2.92 ± 0.32.
VGYQSQNISCFFRLVDRDSVWGYD [MYORG]: the protein stability index is, setting by setting: under setting [1], 2.34 ± 0.85; under setting [2], 2.34 ± 0.17.
The corresponding values for VHRRGEYNVYSTFQSHEPEFDYLK [PPP2R2B] are 2.97 ± 0.11 and 2.88 ± 0.17.
As for VHTKEQILELLVLEQFLAILPKEL [ZNF396], the protein stability index under setting [1] worked out at 3.22 ± 0.74 and the protein stability index under setting [2] is 2.43 ± 0.63.
On the same counts, the results for VIAYDHSRVLLSAIEGIPGSDYVN [PTPRD] are 1.89 ± 0.5 and 1.79 ± 0.28.
On the same counts, the results for VILFSSAVYFAEAEEAESHFSSIP [KCNA1] are 2.37 ± 0.5 and 2.35 ± 0.29.
On the same counts, the results for VIPECAHGGLYKPVQCHPSTGYCW [SMOC2] are 2.38 ± 0.56 and 2.77 ± 0.9.
On to VISCTIFIVGMVGNATLLRIIYQN [EDNRA], for which the protein stability index reads like this: under setting [1], 3.11 ± 0.14; under setting [2], 2.29 ± 0.12.
In the case of VIVKEGGLKLIQIQDNGTGIRKED [MLH1], the protein stability index was determined as 3.44 ± 0.33 under setting [1] and 3.48 ± 0.41 under setting [2].
On the same counts, the results for VKEKGSTLDLSDLEAEKLVMFQRR [SCD] are 4.06 ± 0.31 and 3.97 ± 0.31.
The corresponding values for VKLMMSTLPKSLSLPTTAPSNSSS [MYBL2] are 3.24 ± 0.18 and 3.33 ± 0.24.
